This is an account of results in the DeepSol protein solubility set.

A short description of this data set: soluble on expression in E. coli; label from the status in PepcDB or PDB records.
For “MSIIKKIVFKRFNSTLKKTALHDLHVSLGGTMVPYAGYSMPVLYKGQTHIESHNWTRTNAGLFDVSHMLQSKLSGPHSVKFLQRVTPTDFNALPVGSGTLSVLLNPQGGVVDDTIITKENDDNEFYIVTNAGCAERDTEFFHDELQNGSTLDCQWKIIEGRSLLALQGPKAKDVLEPLLSKTAPGKDLKELFFGQRHEFALKDGSLVQIARGGYTGEDGFEISIANEKAVEFAEQLLANPVMKPIGLAARDSLRLEAGMCLYGHELDESITPVEAALNWVISKSRRDLVDQKYWFNGYAKIMDQLNNKTYSKVRVGFKYLKKGPAARNGVKIFLPDAETEVGLVTSGSASPTLNNINIGQAYVQKGYHKKGTKLLVQVRNKFYPIELAKMPLVPTHYYKQ”, the “soluble on expression in E. coli” value is recorded as “not soluble”.

Consider “SGLIGEGLKDVKSAAGDTRVDNFADRLAALSQAAQPARAVAAPASAPLMNQPLAMHQSGWTEGIVDRVMYLSSQNLKTADIKLEPAELGRLDIRINMAPEQQTQVTFMSAHMGVRDALESQMSKLRESFVQQGLGNVDVNVSDQS”, for which the “soluble on expression in E. coli” value is given as “not soluble”.

Consider “MHHHHHHSSGVDLGTENLYFQSMEESGATFHTYLNHLIQGLQKEAKEKFKGWVTCSSTDNTDLAFKKVGDGNPLKLWKASVEVEAPPSVVLNRVLRERHLWDEDFVQWKVVETLDRQTEIYQYVLNSMAPHPSRDFVVLRTWKTDLPKGMCTLVSLSVEHEEAQLLGGVRAVVMDSQYLIEPCGSGKSRLTHICRIDLKGHSPEWYSKGFGHLCAAEVARIRNSFQPLIAEGPETKI”, for which the “soluble on expression in E. coli” value is recorded as “soluble”.

Turning to “MGSDKIHHHHHHMKALVVGACTRPVVNSLKKLNFEVYSVSHYNPVDLNADHKKYTINDKFHGHLADKYSEKELLNLSKEYVDLVDYIFVCSGIFESKTSKTPNWDVVGNSPKRIKNISDKYKTVKKLENLGFNVPVTYLVNNKYQFEKCLSELKSVVVKPISGSGGIGVTNIDFQNTDNLDINYPVLVQERIKSESYSASFIGSNFLCFNKQLINNNIYVGNISPYVLNLKNETIQEFEEVIASLDLLGMNGIDFMLKDGIPYIIEVNPRILGTYETIELSSRYNLSKAILENKPVKPKDCFFKKIVFSDKGSSYSIDKNPFLRDIPQKGTYIEEGEPVVTIIGRNMADVREMECGILRGV”, the “soluble on expression in E. coli” value is reported as “not soluble”.

Consider “MTVSEIRVRKINPRAKIPKRQSEGAAGYDIHSVESGRIPPNGRKSVRTGLAWDVPQSVVGLVFGRSGLALRNWIEVVETCVHPGEDKELVITLVNNGREVFEYEESSRIAQLVFVPVLSCEIDLVESLDLTERGCLGFGSTGMK”, for which the “soluble on expression in E. coli” value is listed as “not soluble”.

Regarding “MAEIRVGTASWTDPTLLASGWYPPGVRNHPERRLRYYAQHFDTVEVDSTFYALPRLEVVRKWAERTPEGFLFHVKAYSAFTGHGLEASALPKDLQALLPQKEGHLSQREVPEEVVEEAWNRFFASLAPLREAGKLGYLHFGLPPWTEPKPRSFRYLERLAERTQGYLVAVEFRNPRWYTAWGFVKRELMRLGLAHVSVDAPPHPEAPPRVLEPTREVAVLRCHGRNAETWKGPHQKPYERFNWRYSEEELLDLAEATRTLAAQAERVFVIFNNNYGTQGVEAALGLKRLLGLGKPPWAEGPFS”, the “soluble on expression in E. coli” value was “soluble”.

Regarding “SASVLKETAGLYETLKAEWNKKNPNLNKCGELLSKLKISLLELNFLPTTGTKLTKQQLILARDVLEIGALWSILKKDIPSFERYMAQLKCYYFDYKDELPESAYRHQLLGLNLLFLLSQNRVSEFHTELERLSAKDIQTNVYIRHPVSLEQYLMEGSYNKVFLAKGNIPAESYTFFIDTLLDTIRDEIAGCIEKAYEQIQFNEATRVLFFSSPKKMTDYAKKRNWTQSPDGYYSFSTQHQKTEEVTIPSTELAKQVIEYARQLEMIV”, the “soluble on expression in E. coli” value is “soluble”.

Turning to “MAHHHHHHMCVKCLFLARSEMAIEESACNDDSQAVTEATSERTVNSATVFRYPFNTMDLGWLVGYIDAFLVKSERWAAAMRLTTCFMTFTVLHEDPLMEDATFQLHKTMLDRSIKKSWPRRNRDLSNTFDAAYHVFETICIVSKYPNLDPAGKAGILRMSEKLIQGMEKPMDNVVIKIDLKKKSETLHATLARLQALGRAPESLSAFDALMASLKMVFFCYVASLGINNMMLDANLNKMDSYVCCEGCPCHAKLRTTYTLFIRDVEKTKVIDCLLIMAVKEDDAFLSKLAEGLFTQFDCRSPFLEKPVRRIQNGALFMVRIALFDAFRHVKALLVDLRASPASLAPQIDNVVLALYIARREMRGMKGLNEHLPLVNKALATADSIYSRLGTENASQELRTLKDYITKIFFLVSAPEFHLAVHSKDPLVGKGAKLCCGNPDCPGKVKEMLKCSGCRVTFYCSVTCQRDDWKTHRFLCKEMGCRKAAPAPIKMAECSTETLKPAAFHG”, the “soluble on expression in E. coli” value is on record as “not soluble”.

Turning to “MAEECSGNCDSCGSSSDCSDTKKMMEQQNAQIRDNMSKIKYKIAVMSGKGGVGKSTVTVNLAATLNMMGYKVGVLDGDIHGPNIPQMLGVDQIQPMADENGIYPVSTPQGIKTMSIGYFLPDKNTPIIWRGPKASGAIRQFLSDVNWGELDFLLIDTPPGSGDIQITTLQAIPDIDGVVIVTTPEEVSVLDARKSVSAANTLEIPIIGIVENMGGFVCPECDKVIDIFGKGGGEKAAKELNVFFLGRIPLDIKARVASDRGVPMVTMDCKASEEFKKVVNTVLERIKKELEHHHHHH”, the “soluble on expression in E. coli” value is listed as “soluble”.

Take “GPGSMLLPRTDSHDPDANDADPRSSSSAPSVSAPALSFTTTADALASTPLSNTNPCAAYTWLPDTRSTAPPDATTRALAYNAYSPPSTAASSATPPPTSSSTAPSTTTVRPPVITVTRATPDTTSTDRTSRRPDSTSTGAYGEDCEPGRYTSGVDLAATSRESVTVSTDPAGNVPVSTSAPFSAST”: the “soluble on expression in E. coli” value is on record as “soluble”.

As for “MKETNAGSVYSPELIEFATVGVEFCALVEQAAAHRTTDFIDKASKVLPLLYLKTALLPPYEYSEEVDFVEEYITEESYEQVRSAVESLLGSYDSFLDARHSDMQYSDTPVGASIGECLADVYQQVGNLLGVVRQSNDRAIPQAIGRCLTYFGEYWGNRLLAAAGALHELRYSEVYRTWEEEERAED”, the “soluble on expression in E. coli” value is “soluble”.

On to “MPPPIAFNASARKSQSVNQSDVMMMSDPSHVDIIKSNSHTTRIAVNLVSEPESRLKLHGEDARMSWTVLLLVFRATTIATRNNVPELDRELAR”, for which the “soluble on expression in E. coli” value is “not soluble”.

“MAHHHHHHMASEEPLNEIPGECPTPGDLGHAGWDVLHTAGAVYPYKPSPLQQEAFRSFLYSWSHVYACSHCSYHMRRYLKRNPPVVTDKLALNRYLCEFHNTVNKNIAKPVYNCDPMVVLRRWHPTFPDMEDQPTIEEQIAEQRRLEQAEAQKQKEKELQQKQVQTSSLGDMKASRERLVGRWRSEKSESHEYANNNPSSVGAFATGWSASSRQHENAGDAAAKSAPAPLAESREKRWWIFGKNGSGDKNAGFSSTTGTPSKVNSSGGGSNSGGMNGSLDDDEASVMAILKRLKACMVYCPDKDEKSNSA”: the “soluble on expression in E. coli” value is “not soluble”.

In the case of “MKQSIRHNKIIELVNQLGYVSTEELVAQLAVSSQTIRRDLNELAEKNLLRRHHGGAGMPSNNENSDYSERKKFFSAQKNIIAQQVAEMIPNGSSLFLDIGTTSEAVAYALLSHQHLRIVTNNLNAAHILMQKDDFQITIAGGDLRADGGIIGEATVNFISEFRLDFGILGISAIDQDGSMLDYDYHEVQVKRALMQSSRQVILVTDHSKFNRRAIVRLGNISEVNYLFTDLPLPLELQQYLAPTNVTVYICNNLEHHHHHH”, the “soluble on expression in E. coli” value is listed as “soluble”.

“RDLAVAILMDCSRSTEASVGERTVIDTAREALAALAAGIDVAGDRQAIWGFSSLRRDRVFLHLCKRFDEPMGPAVTARIGGLRPGHYTRLGAAIRHASARLNEEAASRKLLLVLTDGKPNDLDHYEGVHGIEDSRMAVREARALSQAVHGVVIDADGQDWFARIFGRAGFTLLPEPARLARALPDLYRSLTQEI”: the “soluble on expression in E. coli” value is listed as “not soluble”.

With “MERYNTMSGKKTESSDNIVLYPGLVKRLIEKGMEALKEKDAKKALTMFEQAEQYDAEPSQILFGKALCYVELGKLDDAVLLTDQMLRNDIGNYYDILQIHLSLLVQLGRYDEVVEMLDVVLAEDRLPAKHAESFYQLLHFSRQMVEDSPTYIKEPLSEELDLKETYDDINERDSLEQWHFLQQMRKHNNPADIRTLLSFVESESNDPALRSYALHMLTMHKVEKRVRIRKFDQEAEVIPVELNADEQQRFGNAVVEQLEARLAVENPSLFKMAEQLWWQFLYALYPFTPKPEQKDLWAGAVHVAVHESNGLPFDEEEIAGMYNCRVQQMLEKGEEIHFVETETFQGISGHSFRMAGDPLEHHHHHH”, the “soluble on expression in E. coli” value is reported as “soluble”.

As for “SLGHWQLASKPTVLKGLPASTGVAIGEFWFDNTQPSLSDVFPSSTLDKEREQELLLVAIERALNDFRRMRKKFDSEINKDALAIFDLFTHLLNDPMLRGDLKKQIEKGDRADWALRQVVETYSNRFARMSDVYLRERAQDIRELGQRLLYFLHNSEQENAAIDRPIILVANELTATLLASVPKEHLLAVVSLEGGANSHAAILSRALGVPAVMGANINTDVVNGKLGIVDGYTGEIFLEPNRQLLREYRSLVSEESELFAMVNKDLA”, the “soluble on expression in E. coli” value was “not soluble”.

Take “MGSSHHHHHHSSGLVPRGSHMETLCQRLNVCQDKILTHYENDSTDLRDHIDYWKHMRLECAIYYKAREMGFKHINHQVVPTLAVSKNKALQAIELQLTLETIYNSQYSNEKWTLQDVSLEVYLTAPTGCIKKHGYTVEVQFDGDICNTMHYTNWTHIYICEEASVTVVEGQVDYYGLYYVHEGIRTYFVQFKDDAEKYSKNKVWEVHAGGQVILCPTSVFS”: the “soluble on expression in E. coli” value is listed as “soluble”.

In the case of “MGHHHHHHSHMAVWIQAQQLQGEALHQMQALYGQHFPIEVRHYLSQWIESQAWDSVDLDNPQENIKATQLLEGLVQELQKKAEHQVGEDGFLLKIKLGHYATQLQNTYDRCPMELVRCIRHILYNEQRLVREANNGSSP”, the “soluble on expression in E. coli” value is “not soluble”.

Take “MSLTTELGRVLVTGGAGFVGANLVTTLLDRGHWVRSFDRAPSLLPAHPQLEVLQGDITDADVCAAAVDGIDTIFHTAAIIELMGGASVTDEYRQRSFAVNVGGTENLLHAGQRAGVQRFVYTSSNSVVMGGQNIAGGDETLPYTDRFNDLYTETKVVAERFVLAQNGVDGMLTCAIRPSGIWGNGDQTMFRKLFESVLKGHVKVLVGRKSARLDNSYVHNLIHGFILAAAHLVPDGTAPGQAYFINDAEPINMFEFARPVLEACGQRWPKMRISGPAVRWVMTGWQRLHFRFGFPAPLLEPLAVERLYLDNYFSIAKARRDLGYEPLFTTQQALTECLPYYVSLFEQMKNEARAEKTAATVKEGHHHHHH”: the “soluble on expression in E. coli” value is given as “soluble”.

With “MAHHHHHHMNVINRMLSRGHVAASASLPIKERPFPVNYGLSTFKWHLDSRKPSKAILLHDLFGSSAYWQMLLHESLGRLPCSGLTPLVPLELFAVDFRGHNHSKSLPCPEEGRAFTMACAADIMLLQQQVLRADAKLVGIGFGALVACQAALHSPESGIDSLVLIVNGPSDLLACEPARYSLPSFISDIPKEISSVADLEHHLHKRVPNEAERALILSTVEQREGTVGFKFNETLFQFRGPLCGFSDVGPENIFTKPVTVIQCGSEEFSGEAKSDFMKHFPKAKFVLFEGDRSGGISGLSAQGPAVTRTLLEAMELLGETTGGEE”, the “soluble on expression in E. coli” value is “not soluble”.

Regarding “MEKIWPTGAQEETLMTQETNQNEVVVQNNAVAKTNTGSNYITAILEETKQGFVEANNGLDMDFVRMGEWLTVTKKGNFVEKDDENVSYGDNIDVVIGYGEQRWSVWGLEESPEAGQLIVAERTKEEAEIVLNQWLAENPQAQERYELDAIQLRYMASVVPVSTLRPDDFPRIYLMSFSPTDTIIFGRFAMNVYTGKYKALEIPSKLGVNRIVTRLVTAERKSRTNASNQWIGIDFQPVGVFKPEDYGINVEETEQAEKASE”, the “soluble on expression in E. coli” value is given as “not soluble”.
